Values quoted from earlier work in publication PMC4365979.

Target: Rab11 (Homo sapiens) (UniProt P62491)
UniProt P62491, sequence (P62491 2-213): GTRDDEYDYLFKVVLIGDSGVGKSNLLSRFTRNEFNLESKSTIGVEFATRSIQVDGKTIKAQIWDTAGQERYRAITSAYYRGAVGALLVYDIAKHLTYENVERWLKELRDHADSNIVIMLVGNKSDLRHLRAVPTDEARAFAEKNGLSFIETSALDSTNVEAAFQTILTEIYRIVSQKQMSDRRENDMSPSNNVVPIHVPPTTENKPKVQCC

Kd: 50 nM
Substance: Rab11-FIP1/RCP (from UniProt Q6WKZ4)
